Laboratory results published in publication PMC8668987 (The Journal of Biological Chemistry, 2021).

What was measured:
[1] = target: endogenous SRC-2 of mouse E14 ES cells (mouse (endogenous in E14 ES cells), UniProt Q61026 1-1462); experiment: co-IP
[2] = target: endogenous SRC-3 of mouse E14 ES cells (mouse (endogenous in E14 ES cells), UniProt O09000 1-1398); experiment: co-IP
Chain of endogenous SRC-3 of mouse E14 ES cells (O09000 whole entry): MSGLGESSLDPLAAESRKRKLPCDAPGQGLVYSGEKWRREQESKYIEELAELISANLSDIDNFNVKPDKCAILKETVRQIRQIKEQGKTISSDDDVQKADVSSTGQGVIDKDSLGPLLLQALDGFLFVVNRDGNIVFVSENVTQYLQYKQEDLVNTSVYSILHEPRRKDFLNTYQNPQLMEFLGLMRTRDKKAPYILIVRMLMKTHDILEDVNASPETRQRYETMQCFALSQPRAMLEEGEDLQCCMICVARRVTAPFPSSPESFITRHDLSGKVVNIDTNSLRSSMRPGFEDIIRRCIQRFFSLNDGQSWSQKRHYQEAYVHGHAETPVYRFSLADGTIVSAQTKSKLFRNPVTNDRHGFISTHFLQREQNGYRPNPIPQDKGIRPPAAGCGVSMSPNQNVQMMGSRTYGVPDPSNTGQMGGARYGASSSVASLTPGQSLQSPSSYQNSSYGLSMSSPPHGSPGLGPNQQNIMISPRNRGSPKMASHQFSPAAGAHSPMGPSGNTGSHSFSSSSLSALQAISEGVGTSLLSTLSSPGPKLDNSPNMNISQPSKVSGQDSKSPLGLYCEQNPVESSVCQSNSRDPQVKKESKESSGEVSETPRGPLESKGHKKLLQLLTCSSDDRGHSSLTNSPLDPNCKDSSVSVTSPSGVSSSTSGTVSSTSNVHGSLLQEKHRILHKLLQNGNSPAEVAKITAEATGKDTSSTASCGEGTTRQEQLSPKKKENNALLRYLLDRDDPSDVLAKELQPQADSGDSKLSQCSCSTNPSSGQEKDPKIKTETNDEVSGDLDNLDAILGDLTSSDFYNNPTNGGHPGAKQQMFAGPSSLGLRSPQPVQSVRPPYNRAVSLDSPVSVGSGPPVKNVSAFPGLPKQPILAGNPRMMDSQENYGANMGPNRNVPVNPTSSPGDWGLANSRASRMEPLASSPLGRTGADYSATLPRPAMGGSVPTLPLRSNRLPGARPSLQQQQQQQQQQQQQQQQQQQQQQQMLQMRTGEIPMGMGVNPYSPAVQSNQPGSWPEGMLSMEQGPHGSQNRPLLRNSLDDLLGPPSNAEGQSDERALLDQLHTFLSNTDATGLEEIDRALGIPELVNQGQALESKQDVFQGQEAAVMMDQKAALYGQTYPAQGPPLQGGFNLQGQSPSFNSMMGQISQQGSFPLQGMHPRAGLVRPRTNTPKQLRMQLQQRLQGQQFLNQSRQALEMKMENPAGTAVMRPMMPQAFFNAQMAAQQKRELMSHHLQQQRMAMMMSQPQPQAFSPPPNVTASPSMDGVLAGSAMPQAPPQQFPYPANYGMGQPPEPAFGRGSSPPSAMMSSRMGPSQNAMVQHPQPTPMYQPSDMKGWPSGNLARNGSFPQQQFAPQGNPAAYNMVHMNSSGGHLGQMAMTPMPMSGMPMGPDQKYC

Chain of endogenous SRC-2 of mouse E14 ES cells (Q61026 whole entry): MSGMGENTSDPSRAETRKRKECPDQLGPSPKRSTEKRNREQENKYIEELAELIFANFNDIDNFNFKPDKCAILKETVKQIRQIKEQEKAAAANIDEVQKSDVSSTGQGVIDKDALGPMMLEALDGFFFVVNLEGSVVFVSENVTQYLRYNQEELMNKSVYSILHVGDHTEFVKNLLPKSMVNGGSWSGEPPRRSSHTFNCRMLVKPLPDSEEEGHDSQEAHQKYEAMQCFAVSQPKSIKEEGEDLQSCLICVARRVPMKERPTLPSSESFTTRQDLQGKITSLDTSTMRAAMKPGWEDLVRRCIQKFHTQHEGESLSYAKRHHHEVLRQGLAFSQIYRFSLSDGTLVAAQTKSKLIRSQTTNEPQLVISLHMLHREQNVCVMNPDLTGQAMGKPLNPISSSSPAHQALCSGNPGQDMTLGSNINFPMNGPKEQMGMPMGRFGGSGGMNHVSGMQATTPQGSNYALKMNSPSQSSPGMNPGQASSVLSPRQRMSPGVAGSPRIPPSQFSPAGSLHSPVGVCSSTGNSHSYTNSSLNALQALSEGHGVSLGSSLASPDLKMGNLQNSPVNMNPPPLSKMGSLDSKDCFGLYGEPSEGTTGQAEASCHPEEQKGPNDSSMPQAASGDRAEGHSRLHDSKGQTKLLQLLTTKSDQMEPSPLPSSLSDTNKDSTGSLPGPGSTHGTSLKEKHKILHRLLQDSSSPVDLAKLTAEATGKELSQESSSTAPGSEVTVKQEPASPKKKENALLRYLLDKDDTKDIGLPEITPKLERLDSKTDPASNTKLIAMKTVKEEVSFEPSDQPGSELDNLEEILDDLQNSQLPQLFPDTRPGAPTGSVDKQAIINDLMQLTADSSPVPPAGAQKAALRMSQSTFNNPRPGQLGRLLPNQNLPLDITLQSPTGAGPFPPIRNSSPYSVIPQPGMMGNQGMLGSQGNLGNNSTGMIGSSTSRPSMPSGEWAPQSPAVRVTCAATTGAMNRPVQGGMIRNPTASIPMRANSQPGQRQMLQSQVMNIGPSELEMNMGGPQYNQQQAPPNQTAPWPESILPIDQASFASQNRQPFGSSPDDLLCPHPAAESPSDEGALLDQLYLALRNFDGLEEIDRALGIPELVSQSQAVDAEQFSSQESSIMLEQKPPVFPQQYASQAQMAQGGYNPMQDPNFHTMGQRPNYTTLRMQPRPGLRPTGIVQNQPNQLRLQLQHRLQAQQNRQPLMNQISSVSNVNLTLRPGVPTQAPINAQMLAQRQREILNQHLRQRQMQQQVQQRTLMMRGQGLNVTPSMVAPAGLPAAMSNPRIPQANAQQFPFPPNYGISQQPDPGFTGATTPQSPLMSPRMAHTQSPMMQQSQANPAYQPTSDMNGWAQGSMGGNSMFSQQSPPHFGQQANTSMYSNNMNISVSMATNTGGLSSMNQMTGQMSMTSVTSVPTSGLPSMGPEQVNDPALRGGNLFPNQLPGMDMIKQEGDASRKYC

B1: endogenous Sox2 of mouse E14 ES cells (natural protein)
chain: not shown
[1]
  fold change of co-precipitated Sox2, TSA plus NAM against untreated cells: 4.08 fold
[2]
  fold change of co-precipitated Sox2, TSA plus NAM against untreated cells: 7.53 fold
